Laboratory results from the RNAGym collection of RNA variant scans (doi:10.1073/pnas.2313332121).

B1: TPR t1 (parent)
chain: GACCAAUCUGCCCUCAGAGCUCGAGAACAUCUUCGGAUGCAGAGGAGGCAGGCUUCGGUGGCGCGAUAGCGCCAACGUCCUCAACCUCCAAUGCAUCCCACCACAUGAUGAUGCCUGAAGAGCCUUGGUUUUUUG

Variants of: B1
Assay: polymerase ribozyme fitness, log enrichment relative to wild type (log ratio); higher = more active; in vitro selection for triplet polymerase activity
In short: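 A heterodimeric triplet polymerase ribozyme had each of its subunits mutagenized by PCR into a library, which was transcribed. One round of in vitro selection, done in triplicate, annealed each library with a biotinylated primer, its partner subunit and triplets, then incubated it frozen at −7 °C before gel excision of extended constructs, streptavidin-bead capture and RT-PCR. Fitness is the logarithm of genotype enrichment relative to wild-type enrichment, based on Illumina sequencing of inputs and outputs and inverse-variance-weighted replicate averages. A base-2 logarithm is used, and genotypes were kept only with ≥10 input reads and ≥1 read per output.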

| Variant | polymerase ribozyme fitness (log ratio) |
| --- | --- |
| GACCAAUCUGCCCUCAGAGCUCGACAACAUCAUCGGAUGCACAGAAGGCACGCUUCGGUGGCGCGAUAGCGCCAACGUCCUCAACCUCCAAUGCAUCCCACCACAUGAUGUUGCCUGAAGAGCCUUGGUUUUUUG [G25C U32A G42C G45A G51C A111U] | -8.24 |
| GACCAAUCUGCCCUCAGAGCUCGAAAACAUCUUCGGAUGCAGAGGAGGCAGGCAUCGGUGUCGCGAUAGCGCCAACGUCCUCAACCUCCAAUGCAUCCCACCACAUGAUGAUGCCUGAAGAGCCUUGGUUUUUUG [G25A U54A G61U] | -7.38 |
| GACCAAUCUGCCCUCAGAGCUCGACAACAUCUUCGGAUGCAGAGGAGGCAGGCUUCGGUGGCGCGAUAGCGCCAACGUCCUCAACCUCCAAUGCAUCCCACCACAUGAUGAUGCCCGAAGAGCCUUGGUUUUUUG [G25C U116C] | -5.31 |
| GACCAAUCUGCCCUCAGAGCUCGACAACAUCUUCGGAUGCAGAGGAGGCAGGCUUCGGUGGCGCGAUAGCGCCAACGUCCUCAACCUCAAAUGCAUCCCACCACAUGAUGAUGCCUGAAGAGCCUUGGUUUUUUG [G25C C89A] | -7.16 |
| GACCAAUCUGCCCUCAGAGCUCGAAAACAUCUUCGGAUGCAGAGGAGGCAGGCUUCGGUGGCGCGAUAGCGUCAACGUCCUCAACCUCCAAUGCAUCCCACCACAUGAUGAUGCCUGAAGAGCCUUGGUUUUUUG [G25A C72U] | -5.57 |
| GACCAAUCUGCCCUCAGAGCUCGAAAACAUCUUCGGAUGCAGAGGAGGCAGGCUUCGGUGGCGCGAUAGCGACAACGUCCUCAACCUCCAAUGCAUCCCACCACAUGAUGAUGCCUGAAGAGCCUUGGUUUUUUG [G25A C72A] | -5.51 |
| GACCAAUCUGCCCUCAGAGCUCGAAAACAUCUUCGGAUGCAGAGGAGGCAGGCUUUGGUGGCGCGAUAGCGCCAACGUCCUCAACCUCCAAUGCAUCCCACCACAUGAUGAUGCCUGAAGAGCCUUGGUUUUUUG [G25A C56U] | -5.12 |
| GACCAAUCUGCCCUCAGAGCUCGACAACAUCUUCGGAUGCAGAGGAGUCAGGCUUCGGUGGCGCGAUAGCGGCAACGUCCUCAACGUCCAAUGCAUCCCUCAACAUGAUGAUGCCUUAGGAGCCUUGGUUUUUUG [G25C G48U C72G C86G A100U C102A G117U A119G] | -7.7 |
| GACCAAUCUGCCCUCAGAGCUCGACAACAUCUUCGGAUGCAGAGGAGGCAGGCUUUGGUGGCGCGAUUGCGCCAACGUCCUCGACCUCCAAUGCAUCCCACCACAUGAUGAUGCCUGAAGAGAGUUGGUUUUUUG [G25C C56U A68U A83G C123A C124G] | -6.66 |
| GACCAAUCUGCCCUCAGAGCUCGAAAACAUCUUCGGAUGCAGAGGAGGCAGGCUUCGGUGGCGCGAUAGCGCCAACGUCCUCAACCUCCAAUGCAACCCACCACAUGAUGAUGCCUGAAGAGCCUUGGUUUUUUG [G25A U96A] | -5.41 |
| GACCAAUCUGCCCUCAGAGCUCGACAACAUCUUCGGAUGCAGAGGAGGCAGGCUUCGGUGCCGCGAUAGCGCCAACGUCCUCAACCUCCAAUGCACCACACCACAUGAUGAGGCCUGAAGAGUCUUGGUUUUUUG [G25C G61C U96C C98A U112G C123U] | -6.63 |
| GACCAAUCUGCCCUCAGAGCUCGACAACAUCUUCGGAUGCAGAGGAGGCAGGCUUCGGUGGCGCGAUAGCGCCAACGUCCUCAACCUCCAAUGCAUCCCACCACAUGAUGAUGCCUGAAAAGCCUUGGUUUUUUG [G25C G120A] | -5.07 |
| GACCAAUCUGCCCUCAGAGCUCGAUAACAUCUUCGGAUGCAGCGGAGGCAGGCUUCGGUGGCGCGAUAGCGCCAACGGCCUCAACCUCCAAUGCAUCCCACCACAUGAUGAUGCCUGAAGGGCCUUGGUUUUUUG [G25U A43C U78G A121G] | -5.96 |
| GACCAAUCUGCCCUCAGAGCUCGACAACAUCUUCGGAUGCAGAGGAGGCAGGCUUCGGUGGCGCGAUAUCGCCAACGUCCUCAACCUCCAAUGCAUCCCACCACAUGAUCAUGCCUGAAGAGCCUUGGUUUUUUG [G25C G69U G110C] | -7.38 |
| GACCAAUCUGCCCUCAGAGCUCGAAAACAUCUUCGGAUGCAGAGGAGGCAGGCUUCGGUGGCGCGAUAGUGCCAACGUCCUCAACCUCCAAUGCAUCCCACCACAUGAUGAUGCCUGAAGAGCCUUGGUUUUUUG [G25A C70U] | -5.76 |
| GACCAAUCUGCCCUCAGAGCUCGAAAACAUCUUCGGAUGCAGAGGAGGCAGGCUUCGGUGGCGCGAUAGCGCCAACGUCCUCAACCUCCAAUGCAUCCCACCACAUGAUGAUGCCUGAAGAGACUUGGUUUUUUG [G25A C123A] | -6.12 |
| GACCAAUCUGCCCUCAGAGCUCGACAACAUCUUCGUAUGCAGAGGAGGCAGGCUUCGGUGGCGCGAUAGCGCCAACGUCCUCAACCACCAAUGCAUCCCACCACAUGGUGAUGCCUGAAAAGCCUUGGUUUUUUC [G25C G36U U87A A108G G120A G135C] | -5.8 |
| GACCAAUCUGCCCUCAGAGCUCGAAAACAUCUUCGGAUGCAGAGGAGGUAGGCUUCGGUGGCGCGAUAGCGCCAACGUCCUCAACCUCCAAUGCAUCCCACCACAUGAUGAUGCCUGAAGAGCCUUGGUUUUUUG [G25A C49U] | -6.96 |
| GACCAAUCUGCCCUCAGAGCUCGAAAACAUCUUCGGAUGCAGAGGAGGCAGGCUUCGGUGGCGCGAUAGCGUCAACGUCCUCAACCUCCAAUGCAUCCCACCACAUGAUGAUGCCUGAAGAGCAUUGGUUUUUUG [G25A C72U C124A] | -6.83 |
| GACCAAUCUGCCCUCAGAGCUCGACAACAUCCUCGGAUGCAGAGAAGGAAGGCUUCGGUGGCGCGAUUACGCCAACGUCCUCAACCUCCAAUGCAUCCCACCACAUGAUGAUGCCUGAAGUGCCUUGGUUUUUUG [G25C U32C G45A C49A A68U G69A A121U] | -7.08 |
| GACCAAUCUGCCCUCAGAGCUCGAUAACGUCUUCGGAUGCAGAGAAGGCAGGCUUCGGUGGCGCGAUAGCGCCAACGUCUUCAACCUCCAAUGCAUCCCACCACAUGAUUAUGCCUGAAGAGCCUUGGUUUUUUG [G25U A29G G45A C80U G110U] | -6.86 |
